The results in this text go back to publication PMC9981700 (2023).

What is called Kd is the free concentration of one partner at which half of the binding sites on the other are occupied at equilibrium, for simple one-to-one binding.

In the test the target is T1, Notch2 (Leu26–Gln530), recombinant protein (UniProt Q04721 26-530).
T1 chain: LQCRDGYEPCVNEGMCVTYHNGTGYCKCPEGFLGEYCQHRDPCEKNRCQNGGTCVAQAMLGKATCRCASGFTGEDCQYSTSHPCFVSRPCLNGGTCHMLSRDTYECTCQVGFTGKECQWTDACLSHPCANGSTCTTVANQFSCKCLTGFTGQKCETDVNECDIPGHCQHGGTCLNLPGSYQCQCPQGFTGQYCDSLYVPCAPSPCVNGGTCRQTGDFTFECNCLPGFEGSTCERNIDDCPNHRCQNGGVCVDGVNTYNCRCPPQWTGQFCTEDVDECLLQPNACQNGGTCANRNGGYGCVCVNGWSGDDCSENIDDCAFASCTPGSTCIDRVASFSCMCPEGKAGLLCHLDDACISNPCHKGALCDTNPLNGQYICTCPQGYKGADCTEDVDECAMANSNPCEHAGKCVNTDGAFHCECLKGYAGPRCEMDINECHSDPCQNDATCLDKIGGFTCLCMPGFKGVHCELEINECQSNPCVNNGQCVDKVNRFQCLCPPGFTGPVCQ
The test can be described thus: BLI. Background: In BLI a coated tip is dipped into the sample, and binding shifts an interference pattern.

B1: Fibulin2 (Ala28–Leu1184), recombinant protein (natural protein)
chain: APRQDCTGVECPPLENCIEEALEPGACCATCVQQGCACEGYQYYDCLQGGFVRGRVPAGQSYFVDFGSTECSCPPGGGKISCQFMLCPELPPNCIEAVVVADSCPQCGQVGCVHAGHKYAAGHTVHLPPCRACHCPDAGGELICYQLPGCHGNFSDAEEGDPERHYEDPYSYDQEVAEVEAATALGGEVQAGAVQAGAGGPPAALGGGSQPLSTIQAPPWPAVLPRPTAAAALGPPAPVQAKARRVTEDSEEEEEEEEEREEMAVTEQLAAGGHRGLDGLPTTAPAGPSLPIQEERAEAGARAEAGARPEENLILDAQATSRSTGPEGVTHAPSLGKAALVPTQAVPGSPRDPVKPSPHNILSTSLPDAAWIPPTREVPRKPQVLPHSHVEEDTDPNSVHSIPRSSPEGSTKDLIETCCAAGQQWAIDNDECLEIPESGTEDNVCRTAQRHCCVSYLQEKSCMAGVLGAKEGETCGAEDNDSCGISLYKQCCDCCGLGLRVRAEGQSCESNPNLGYPCNHVMLSCCEGEEPLIVPEVRRPPEPAAAPRRVSEAEMAGREALSLGTEAELPNSLPGDDQDECLLLPGELCQHLCINTVGSYHCACFPGFSLQDDGRTCRPEGHPPQPEAPQEPALKSEFSQVASNTIPLPLPQPNTCKDNGPCKQVCSTVGGSAICSCFPGYAIMADGVSCEDINECVTDLHTCSRGEHCVNTLGSFHCYKALTCEPGYALKDGECEDVDECAMGTHTCQPGFLCQNTKGSFYCQARQRCMDGFLQDPEGNCVDINECTSLSEPCRPGFSCINTVGSYTCQRNPLICARGYHASDDGTKCVDVNECETGVHRCGEGQVCHNLPGSYRCDCKAGFQRDAFGRGCIDVNECWASPGRLCQHTCENTLGSYRCSCASGFLLAADGKRCEDVNECEAQRCSQECANIYGSYQCYCRQGYQLAEDGHTCTDIDECAQGAGILCTFRCLNVPGSYQCACPEQGYTMTANGRSCKDVDECALGTHNCSEAETCHNIQGSFRCLRFECPPNYVQVSKTKCERTTCHDFLECQNSPARITHYQLNFQTGLLVPAHIFRIGPAPAFTGDTIALNIIKGNEEGYFGTRRLNAYTGVVYLQRAVLEPRDFALDVEMKLWRQGSVTTFLAKMHIFFTTFAL
Consider B1, for which the Kd turned out to be 1.22 nM.
